Numbering of substitutions follows the chain as printed.
T1: human LAG-3 domain 1-2 Fc fusion, point mutation #63 D123A (human, UniProt P18627 23-266)
T1 construct: not shown: human IgG1 Fc, AA P101-K330
T1 sequence: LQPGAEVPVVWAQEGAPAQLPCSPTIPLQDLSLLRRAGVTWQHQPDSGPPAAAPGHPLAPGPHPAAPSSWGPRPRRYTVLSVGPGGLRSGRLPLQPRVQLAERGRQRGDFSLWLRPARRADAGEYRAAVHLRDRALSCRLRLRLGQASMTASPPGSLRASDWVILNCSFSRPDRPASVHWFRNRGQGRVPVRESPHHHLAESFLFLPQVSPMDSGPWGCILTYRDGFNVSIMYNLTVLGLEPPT

T2: human LAG-3 domain 1-2 Fc fusion, point mutation #51 G107A (human, UniProt P18627 23-266)
T2 construct: not shown: human IgG1 Fc, AA P101-K330
T2 sequence: T1 sequence with G85A, A101D

T3: human LAG-3 domain 1-2 Fc fusion, point mutation #29 P82A (human, UniProt P18627 23-266)
T3 construct: not shown: human IgG1 Fc, AA P101-K330
T3 sequence: T1 sequence with P60A, A101D

T4: human LAG-3 domain 1-2 Fc fusion, point mutation #73 R137A (human, UniProt P18627 23-266)
T4 construct: not shown: human IgG1 Fc, AA P101-K330
T4 sequence: T1 sequence with A101D, R115A

T5: human LAG-3 domain 1-2 Fc fusion, point mutation #54 R110A (human, UniProt P18627 23-266)
T5 construct: not shown: human IgG1 Fc, AA P101-K330
T5 sequence: T1 sequence with R88A, A101D

T6: human LAG-3 domain 1-2 Fc fusion, point mutation #70 G130A (human, UniProt P18627 23-266)
T6 construct: not shown: human IgG1 Fc, AA P101-K330
T6 sequence: T1 sequence with A101D, G108A

T7: human LAG-3 domain 1-2 Fc fusion, point mutation #72 S133A (human, UniProt P18627 23-266)
T7 construct: not shown: human IgG1 Fc, AA P101-K330
T7 sequence: T1 sequence with A101D, S111A

T8: human LAG-3 domain 1-2 Fc fusion, point mutation #58 P115A (human, UniProt P18627 23-266)
T8 construct: not shown: human IgG1 Fc, AA P101-K330
T8 sequence: T1 sequence with P93A, A101D

T9: human LAG-3 domain 1-2 Fc fusion, point mutation #75 R141A (human, UniProt P18627 23-266)
T9 construct: not shown: human IgG1 Fc, AA P101-K330
T9 sequence: T1 sequence with A101D, R119A

B1: Fab fragment of antibody 15532 (Fab, V domains shown, not shown: a dimerising Fc or GST)
VH: QVQLQQWGAGLLRPSETLSLTCAVYGESFSGYYWNWIRQPPGKGLEWIGEINHSGSTNYNPSLKSRVTISVDTSKTQFSLKLSSVTAADTAVYYCARGWDLLDWNDYWNEYWGQGTLVTVSS
VL: EIVLTQSPATLSLSPGERATLSCRASQSVSSYLAWYQQKPGQAPRLLIYDASNRATGIPARFSGSGSGTDFTLTISSLEPEDFAVYYCQQRSNWPLTFGGGTKVEIKR
notes: monomeric Fab made by GingisKHAN digestion of the IgG1
B2: Fab fragment of antibody 15011 (Fab, V domains shown, not shown: a dimerising Fc or GST)
VH: EVQLLESGGGLVQPGGSLRLSCAASGFDFRSYAMMWVRQAPGKGLEWVGGINGEVGGSNTYYAPAVKGRATISRDNSKNTLYLQMNSLRAEDTAVYYCVKGAGACGICNDDIDAWGQGTLVTVSS
VL: SYELTQDPAVSVALGQTVRITCSGAGSYAGSYYYGWHQQKPGQAPVTVIYDNDKRPSNIPDRFSGSSSGNTASLTITGAQAEDEADYYCGSTNDNDDGGLFGSGTKVTVLG
notes: as for B1
B3: Fab fragment of antibody 15431 (Fab, V domains shown, not shown: a dimerising Fc or GST)
VH: QVQLQQSGPGLVKPSQTLSLTCAISGDSVSSNSAAWNWIRQSPSRGLEWLGRTYYRSKWYNDYAVSVKSRITINPDTSKNQFSLQLNSVTPEDTAVYYCARDDDWNDFDYWGQGTLVTVSS
VL: B1 VL
notes: as for B1
B4: Fab fragment of antibody 15572 (Fab, V domains shown, not shown: a dimerising Fc or GST)
VH: QLQLQESGPGLVKPSETLSLTCTVSGDSISSSSYYWGWIRQPPGKGLEWIGSIFYSGNTYYNPSLKSRVTISVDTSKNQFSLKLSSVTAADTAVYYCAREDDFLTDYYGAFDIWGQGTMVTVSS
VL: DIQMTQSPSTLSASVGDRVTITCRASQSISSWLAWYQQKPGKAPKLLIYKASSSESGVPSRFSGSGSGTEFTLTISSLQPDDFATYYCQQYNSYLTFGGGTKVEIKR
notes: as for B1

Legend:
Test in all cases: SPR, Fab over captured mutant LAG-3-Fc;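 note: fc fusion variants captured on anti-human IgG Fc sensor, Fab injected with association then dissociation phases, KD obtained from Langmuir one-to-one fit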
[1] = molecular target: T1, human LAG-3 domain 1-2 Fc fusion, point …
[2] = molecular target: T2, human LAG-3 domain 1-2 Fc fusion, point …
[3] = molecular target: T3, human LAG-3 domain 1-2 Fc fusion, point …
[4] = molecular target: T4, human LAG-3 domain 1-2 Fc fusion, point …
[5] = molecular target: T5, human LAG-3 domain 1-2 Fc fusion, point …
[6] = molecular target: T6, human LAG-3 domain 1-2 Fc fusion, point …
[7] = molecular target: T7, human LAG-3 domain 1-2 Fc fusion, point …
[8] = molecular target: T8, human LAG-3 domain 1-2 Fc fusion, point …
[9] = molecular target: T9, human LAG-3 domain 1-2 Fc fusion, point …

Binder | KD mutant/KD wild type [1] | KD mutant/KD wild type [2] | KD mutant/KD wild type [3] | KD mutant/KD wild type [4] | KD mutant/KD wild type [5] | KD mutant/KD wild type [6] | KD mutant/KD wild type [7] | KD mutant/KD wild type [8] | KD mutant/KD wild type [9] | binding result [5] | binding result [2] | binding result [4] | binding result [6] | binding result [7]
B1 | 1 fold | 2.1 fold | 1 fold | 3.6 fold | 0.9 fold | 4.4 fold | 2.2 fold | 1 fold | 0.7 fold | – | – | – | – | –
B2 | 0.8 fold | 5.7 fold | 0.9 fold | 0.6 fold | – | 0.6 fold | 0.6 fold | 1.3 fold | 1.1 fold | no binding (tested: 300 nM) | – | – | – | –
B3 | 0.9 fold | – | 1 fold | – | 0.9 fold | – | – | 1.1 fold | 1 fold | – | no binding (tested: 300 nM) | no binding (tested: 300 nM) | no binding (tested: 300 nM) | no binding (tested: 300 nM)
B4 | 0.5 fold | – | 0.8 fold | – | 0.6 fold | – | – | 1.4 fold | 0.9 fold | – | no binding (tested: 300 nM) | no binding (tested: 300 nM) | no binding (tested: 300 nM) | no binding (tested: 300 nM)

— patent US20220363757A1 (SYMPHOGEN A S, published 2022)
